T1: TNFR1 (Homo sapiens, UniProt P19438)
T1 chain: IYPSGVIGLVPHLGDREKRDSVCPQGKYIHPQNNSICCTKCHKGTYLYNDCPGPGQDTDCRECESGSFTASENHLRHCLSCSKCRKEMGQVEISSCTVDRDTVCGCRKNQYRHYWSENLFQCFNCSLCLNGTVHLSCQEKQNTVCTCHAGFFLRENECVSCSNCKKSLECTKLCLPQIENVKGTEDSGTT


Target: T1, TNFR1
Experiment: yeast display SC50

Binder	apparent Kd (screen) [nM]
E72V (designed binder) SMEEEVEKAAKEYEKKKKEAIEKHLEKLKAKDKEAAERFLKELEEAAKEYAKDEAKTMSEEEAKRRAKKYKVKVLLSELSEEEQKEIKEAEEKLVRTILKYVEEAAK	1.27
F39A (designed binder) SMEEEVEKAAKEYEKKKKEAIEKHLEKLKAKDKEAAERALKELEEAAKEYAKDEAKTMSEEEAKRRAKKYKEKVLLSELSEEEQKEIKEAEEKLVRTILKYVEEAAK	3
E14M (designed binder) SMEEEVEKAAKEYMKKKKEAIEKHLEKLKAKDKEAAERFLKELEEAAKEYAKDEAKTMSEEEAKRRAKKYKEKVLLSELSEEEQKEIKEAEEKLVRTILKYVEEAAK	12.5
K73C (designed binder) SMEEEVEKAAKEYEKKKKEAIEKHLEKLKAKDKEAAERFLKELEEAAKEYAKDEAKTMSEEEAKRRAKKYKECVLLSELSEEEQKEIKEAEEKLVRTILKYVEEAAK	24.4
R66P (designed binder) SMEEEVEKAAKEYEKKKKEAIEKHLEKLKAKDKEAAERFLKELEEAAKEYAKDEAKTMSEEEAKRPAKKYKEKVLLSELSEEEQKEIKEAEEKLVRTILKYVEEAAK	0.593
I87R (designed binder) SMEEEVEKAAKEYEKKKKEAIEKHLEKLKAKDKEAAERFLKELEEAAKEYAKDEAKTMSEEEAKRRAKKYKEKVLLSELSEEEQKERKEAEEKLVRTILKYVEEAAK	16.7
E82L (designed binder) SMEEEVEKAAKEYEKKKKEAIEKHLEKLKAKDKEAAERFLKELEEAAKEYAKDEAKTMSEEEAKRRAKKYKEKVLLSELSELEQKEIKEAEEKLVRTILKYVEEAAK	0.718
A105K (designed binder) SMEEEVEKAAKEYEKKKKEAIEKHLEKLKAKDKEAAERFLKELEEAAKEYAKDEAKTMSEEEAKRRAKKYKEKVLLSELSEEEQKEIKEAEEKLVRTILKYVEEKAK	1.86
A20H (designed binder) SMEEEVEKAAKEYEKKKKEHIEKHLEKLKAKDKEAAERFLKELEEAAKEYAKDEAKTMSEEEAKRRAKKYKEKVLLSELSEEEQKEIKEAEEKLVRTILKYVEEAAK	0.446
S1H (designed binder) HMEEEVEKAAKEYEKKKKEAIEKHLEKLKAKDKEAAERFLKELEEAAKEYAKDEAKTMSEEEAKRRAKKYKEKVLLSELSEEEQKEIKEAEEKLVRTILKYVEEAAK	1.4
E89L (designed binder) SMEEEVEKAAKEYEKKKKEAIEKHLEKLKAKDKEAAERFLKELEEAAKEYAKDEAKTMSEEEAKRRAKKYKEKVLLSELSEEEQKEIKLAEEKLVRTILKYVEEAAK	1.86
K17S (designed binder) SMEEEVEKAAKEYEKKSKEAIEKHLEKLKAKDKEAAERFLKELEEAAKEYAKDEAKTMSEEEAKRRAKKYKEKVLLSELSEEEQKEIKEAEEKLVRTILKYVEEAAK	1.27
E4R (designed binder) SMEREVEKAAKEYEKKKKEAIEKHLEKLKAKDKEAAERFLKELEEAAKEYAKDEAKTMSEEEAKRRAKKYKEKVLLSELSEEEQKEIKEAEEKLVRTILKYVEEAAK	1.69
A55E (designed binder) SMEEEVEKAAKEYEKKKKEAIEKHLEKLKAKDKEAAERFLKELEEAAKEYAKDEEKTMSEEEAKRRAKKYKEKVLLSELSEEEQKEIKEAEEKLVRTILKYVEEAAK	1.27
E26P (designed binder) SMEEEVEKAAKEYEKKKKEAIEKHLPKLKAKDKEAAERFLKELEEAAKEYAKDEAKTMSEEEAKRRAKKYKEKVLLSELSEEEQKEIKEAEEKLVRTILKYVEEAAK	22.2
E45H (designed binder) SMEEEVEKAAKEYEKKKKEAIEKHLEKLKAKDKEAAERFLKELEHAAKEYAKDEAKTMSEEEAKRRAKKYKEKVLLSELSEEEQKEIKEAEEKLVRTILKYVEEAAK	3.3
V95T (designed binder) SMEEEVEKAAKEYEKKKKEAIEKHLEKLKAKDKEAAERFLKELEEAAKEYAKDEAKTMSEEEAKRRAKKYKEKVLLSELSEEEQKEIKEAEEKLTRTILKYVEEAAK	13.8
E4P (designed binder) SMEPEVEKAAKEYEKKKKEAIEKHLEKLKAKDKEAAERFLKELEEAAKEYAKDEAKTMSEEEAKRRAKKYKEKVLLSELSEEEQKEIKEAEEKLVRTILKYVEEAAK	3.3
K33V (designed binder) SMEEEVEKAAKEYEKKKKEAIEKHLEKLKAKDVEAAERFLKELEEAAKEYAKDEAKTMSEEEAKRRAKKYKEKVLLSELSEEEQKEIKEAEEKLVRTILKYVEEAAK	0.446
E12Y (designed binder) SMEEEVEKAAKYYEKKKKEAIEKHLEKLKAKDKEAAERFLKELEEAAKEYAKDEAKTMSEEEAKRRAKKYKEKVLLSELSEEEQKEIKEAEEKLVRTILKYVEEAAK	0.593
E4I (designed binder) SMEIEVEKAAKEYEKKKKEAIEKHLEKLKAKDKEAAERFLKELEEAAKEYAKDEAKTMSEEEAKRRAKKYKEKVLLSELSEEEQKEIKEAEEKLVRTILKYVEEAAK	1.86
A105H (designed binder) SMEEEVEKAAKEYEKKKKEAIEKHLEKLKAKDKEAAERFLKELEEAAKEYAKDEAKTMSEEEAKRRAKKYKEKVLLSELSEEEQKEIKEAEEKLVRTILKYVEEHAK	2.05
V95S (designed binder) SMEEEVEKAAKEYEKKKKEAIEKHLEKLKAKDKEAAERFLKELEEAAKEYAKDEAKTMSEEEAKRRAKKYKEKVLLSELSEEEQKEIKEAEEKLSRTILKYVEEAAK	13.8
K18C (designed binder) SMEEEVEKAAKEYEKKKCEAIEKHLEKLKAKDKEAAERFLKELEEAAKEYAKDEAKTMSEEEAKRRAKKYKEKVLLSELSEEEQKEIKEAEEKLVRTILKYVEEAAK	0.869
A47K (designed binder) SMEEEVEKAAKEYEKKKKEAIEKHLEKLKAKDKEAAERFLKELEEAKKEYAKDEAKTMSEEEAKRRAKKYKEKVLLSELSEEEQKEIKEAEEKLVRTILKYVEEAAK	0.49
E54W (designed binder) SMEEEVEKAAKEYEKKKKEAIEKHLEKLKAKDKEAAERFLKELEEAAKEYAKDWAKTMSEEEAKRRAKKYKEKVLLSELSEEEQKEIKEAEEKLVRTILKYVEEAAK	0.869
